Data: paper PMC3050645

Substrate: [O-][Cl+]O
Experiment: Clark-type O2 electrode, initial rates
Assay type: biochemical, Dechloromonas aromatica (nom. nud.)
Details: pH 5.2, 4 °C, 100 mM citrate-phosphate

B1: Chlorite dismutase (Cld) (Dechloromonas aromatica RCB) (protein)
chain: MQPMQSMKIERGTILTQPGVFGVFTMFKLRPDWNKVPVAERKGAAEEVKKLIEKHKDNVLVDLYLTRGLETNSDFFFRINAYDLAKAQTFMREFRSTTVGKNADVFETLVGVTKPLNYISKDKSPGLNAGLSSATYSGPAPRYVIVIPVKKNAEWWNMSPEERLKEMEVHTTPTLAYLVNVKRKLYHSTGLDDTDFITYFETDDLTAFNNLMLSLAQVKENKFHVRWGSPTTLGTIHSPEDVIKALAD
Question: B1 was tested. Which Km did it give?
Answer: Its Km is 620 ± 70 µM.

Question: And the kcat?
Answer: The kcat was 20000 ± 6000 s⁻¹.

Question: And the kcat/Km?
Answer: The kcat/Km was 3.2e+07 ± 4e+06 M⁻¹ s⁻¹.
